Results on two proteins are retold here after article doi:10.1101/2023.07.16.549228 (bioRxiv, 2023).

The series deals with the molecule itself. The experiment in a line: transmission electron microscopy.

B1: encapsulin from Thermotoga maritima (TmEnc) nanocage (natural protein)
chain: MEFLKRSFAPLTEKQWQEIDNRAREIFKTQLYGRKFVDVEGPYGWEYAAHPLGEVEVLSDENEVVKWGLRKSLPLIELRATFTLDLWELDNLERGKPNVDLSSLEETVRKVAEFEDEVIFRGCEKSGVKGLLSFEERKIECGSTPKDLLEAIVRALSIFSKDGIEGPYTLVINTDRWINFLKEEAGHYPLEKRVEECLRGGKIITTPRIEDALVVSERGGDFKLILGQDLSIGYEDREKDAVRLFITETFTFQVVNPEALILLKF
As to B1, the binding result is on record as “binds”.

B2: Cy7-labelled TmEnc (TmEnc^Cy7) nanocage (natural protein, Thermotoga maritima)
chain: MEFLKRSFAPLTEKQWQEIDNRAREIFKTQLYGRKFVDVEGPYGWEYAAHPLGEVEVLSDENEVVKWGLRKSLPLIELRATFTLDLWELDNLERGKPNVDLSSLEETVRKVAEFEDEVIFRGCEKSGVKGLLSFEERKIECGSTPKDLLEAIVRALSIFSKDGIEGPYTLVINTDRWINFLKEEAGHYPLEKRVEECLRGGKIITTPRIEDALVVSERGGDFKLILGQDLSIGYEDREKDAVRLFITETFTFQVVNPEALILLKF
modifications: sulfo-Cy7 conjugated to lysine residues on the outer surface (~50 dye molecules per nanocage)
B2: the binding result is recorded as “binds”.
